Here are results for one molecule from patent publication US20040005550A1, “Methods and compositions useful for targeting activated vitronectin receptor alphavbeta3” (The Scripps Research Institute, priority 1998, published 2004).

In assay [1] the target is T1, human αvβ3 integrin on cells (human), P06756.
T1 chain 1: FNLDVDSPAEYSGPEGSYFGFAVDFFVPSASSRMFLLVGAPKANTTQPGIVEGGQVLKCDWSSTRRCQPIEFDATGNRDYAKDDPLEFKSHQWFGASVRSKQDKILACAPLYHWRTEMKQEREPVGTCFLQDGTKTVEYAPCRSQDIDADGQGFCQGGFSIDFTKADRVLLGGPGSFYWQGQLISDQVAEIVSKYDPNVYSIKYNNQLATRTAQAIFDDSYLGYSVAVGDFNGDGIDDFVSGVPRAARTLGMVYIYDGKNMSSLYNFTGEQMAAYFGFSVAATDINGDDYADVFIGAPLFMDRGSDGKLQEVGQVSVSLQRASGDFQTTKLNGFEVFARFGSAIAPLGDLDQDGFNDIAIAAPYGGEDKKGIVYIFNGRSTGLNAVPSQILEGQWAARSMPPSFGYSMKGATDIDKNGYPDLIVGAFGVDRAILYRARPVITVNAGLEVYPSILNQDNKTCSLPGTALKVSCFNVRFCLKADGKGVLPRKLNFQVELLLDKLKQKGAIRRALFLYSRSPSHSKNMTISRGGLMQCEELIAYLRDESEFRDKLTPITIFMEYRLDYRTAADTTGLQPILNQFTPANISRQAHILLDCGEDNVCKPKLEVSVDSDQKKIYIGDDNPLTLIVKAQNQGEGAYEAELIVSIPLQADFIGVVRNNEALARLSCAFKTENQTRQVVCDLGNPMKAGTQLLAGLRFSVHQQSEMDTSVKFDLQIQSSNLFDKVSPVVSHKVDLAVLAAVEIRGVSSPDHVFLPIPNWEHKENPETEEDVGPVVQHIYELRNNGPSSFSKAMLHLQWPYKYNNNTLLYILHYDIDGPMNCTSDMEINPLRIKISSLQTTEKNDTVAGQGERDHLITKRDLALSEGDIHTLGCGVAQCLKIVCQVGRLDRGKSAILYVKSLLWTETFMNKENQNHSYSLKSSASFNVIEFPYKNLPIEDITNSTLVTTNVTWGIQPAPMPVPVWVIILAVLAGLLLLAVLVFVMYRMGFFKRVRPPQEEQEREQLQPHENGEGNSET
T1 chain 2: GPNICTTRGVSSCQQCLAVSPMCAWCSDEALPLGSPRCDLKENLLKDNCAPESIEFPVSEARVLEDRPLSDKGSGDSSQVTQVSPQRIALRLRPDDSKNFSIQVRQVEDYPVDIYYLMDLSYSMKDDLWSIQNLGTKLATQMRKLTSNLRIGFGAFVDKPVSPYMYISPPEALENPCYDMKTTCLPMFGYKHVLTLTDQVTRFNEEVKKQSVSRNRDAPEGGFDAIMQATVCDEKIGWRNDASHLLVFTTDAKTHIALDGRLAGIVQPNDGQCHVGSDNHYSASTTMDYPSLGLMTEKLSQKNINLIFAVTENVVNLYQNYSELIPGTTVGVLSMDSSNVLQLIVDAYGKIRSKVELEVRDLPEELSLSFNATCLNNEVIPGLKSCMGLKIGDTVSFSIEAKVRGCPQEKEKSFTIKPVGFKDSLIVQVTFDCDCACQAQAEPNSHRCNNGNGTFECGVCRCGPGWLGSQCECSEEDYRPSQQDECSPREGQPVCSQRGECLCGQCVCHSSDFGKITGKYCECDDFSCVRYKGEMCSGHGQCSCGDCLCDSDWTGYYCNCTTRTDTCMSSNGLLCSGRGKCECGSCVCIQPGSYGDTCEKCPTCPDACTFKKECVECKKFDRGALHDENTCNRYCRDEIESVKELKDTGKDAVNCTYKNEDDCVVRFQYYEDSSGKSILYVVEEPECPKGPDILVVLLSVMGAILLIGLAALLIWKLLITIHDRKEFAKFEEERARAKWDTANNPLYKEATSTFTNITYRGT
Nature of the assay: flow cytometry, AP5-treated αvβ3-CHO cells; 2 mM RGDS against WOW-1 Fab. For orientation: A flow cytometer gives signals particle by particle.

The target of assay [2] is T1, human αvβ3 integrin on cells (human), …. Nature of the assay: flow cytometry, AP5-treated αvβ3-CHO cells; 2 mM RGDS against aPB.
Assay [3] concerns the target T2, purified αvβ3 receptors from human placenta (human), P06756.
T2 chain 1: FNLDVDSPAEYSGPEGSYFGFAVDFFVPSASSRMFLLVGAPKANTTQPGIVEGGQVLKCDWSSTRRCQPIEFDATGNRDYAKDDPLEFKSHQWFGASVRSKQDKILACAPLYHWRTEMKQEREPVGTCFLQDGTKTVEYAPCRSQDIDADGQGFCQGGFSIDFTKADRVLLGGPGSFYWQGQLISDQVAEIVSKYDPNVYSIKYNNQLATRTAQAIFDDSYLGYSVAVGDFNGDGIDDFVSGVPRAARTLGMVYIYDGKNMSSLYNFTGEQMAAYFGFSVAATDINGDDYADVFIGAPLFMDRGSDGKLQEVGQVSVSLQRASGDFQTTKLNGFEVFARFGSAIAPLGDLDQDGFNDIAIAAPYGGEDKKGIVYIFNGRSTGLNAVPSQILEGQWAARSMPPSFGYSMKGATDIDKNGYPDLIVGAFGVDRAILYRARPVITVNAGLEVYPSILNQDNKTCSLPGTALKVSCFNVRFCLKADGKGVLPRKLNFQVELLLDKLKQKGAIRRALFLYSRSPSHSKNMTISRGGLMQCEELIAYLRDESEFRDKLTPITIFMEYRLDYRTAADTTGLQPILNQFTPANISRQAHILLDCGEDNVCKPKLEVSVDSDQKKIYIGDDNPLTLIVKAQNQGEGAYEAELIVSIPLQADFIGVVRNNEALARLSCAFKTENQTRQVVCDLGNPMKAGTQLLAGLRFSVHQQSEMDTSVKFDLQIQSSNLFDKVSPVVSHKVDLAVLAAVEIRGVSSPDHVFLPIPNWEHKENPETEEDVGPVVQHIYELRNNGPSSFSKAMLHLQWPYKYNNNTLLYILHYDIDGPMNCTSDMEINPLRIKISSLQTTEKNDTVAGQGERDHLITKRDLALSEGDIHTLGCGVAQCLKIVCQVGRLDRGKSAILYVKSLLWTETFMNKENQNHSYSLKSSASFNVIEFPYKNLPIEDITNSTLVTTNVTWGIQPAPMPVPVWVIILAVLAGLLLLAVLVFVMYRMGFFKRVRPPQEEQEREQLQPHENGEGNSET
T2 chain 2: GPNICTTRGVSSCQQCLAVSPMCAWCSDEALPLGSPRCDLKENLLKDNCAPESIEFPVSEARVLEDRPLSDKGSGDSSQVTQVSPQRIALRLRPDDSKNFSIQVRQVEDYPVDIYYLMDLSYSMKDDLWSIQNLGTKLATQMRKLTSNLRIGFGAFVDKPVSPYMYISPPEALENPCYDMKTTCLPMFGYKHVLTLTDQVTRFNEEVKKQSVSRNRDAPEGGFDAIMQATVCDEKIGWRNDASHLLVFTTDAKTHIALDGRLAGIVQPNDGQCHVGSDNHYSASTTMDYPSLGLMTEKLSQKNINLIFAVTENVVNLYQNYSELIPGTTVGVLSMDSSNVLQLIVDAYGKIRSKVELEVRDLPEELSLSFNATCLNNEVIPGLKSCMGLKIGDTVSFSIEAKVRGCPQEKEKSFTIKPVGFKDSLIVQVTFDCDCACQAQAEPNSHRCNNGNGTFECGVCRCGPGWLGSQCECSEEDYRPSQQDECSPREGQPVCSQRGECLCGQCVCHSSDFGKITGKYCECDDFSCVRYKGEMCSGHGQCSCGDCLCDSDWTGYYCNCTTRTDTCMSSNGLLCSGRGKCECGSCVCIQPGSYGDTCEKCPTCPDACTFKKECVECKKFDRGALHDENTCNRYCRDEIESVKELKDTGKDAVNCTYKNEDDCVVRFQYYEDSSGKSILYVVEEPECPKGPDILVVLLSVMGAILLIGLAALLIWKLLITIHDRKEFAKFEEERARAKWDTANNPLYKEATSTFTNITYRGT
Put plainly: ELISA on purified integrin; 2 mM RGDS against WOW-1 Fab.

B1: RGDS (peptide)
peptide: RGDS
modifications: not checked
In the case of B1, the percent inhibition of WOW-1 Fab binding in assay [1] is above 85%; in assay [3], above 95%. This molecule came in with a percent inhibition of aPB binding in assay [2] above 85%.
